# Data: patent US5821075
# B1: PTPL1 protein tyrosine phosphatase (enzyme)
# chain: MVQPEQAPKVLNVVVDPQGRGAPEIKATTATSVCPSPFKMKPIGLQERRGSNVSLTLDMSSLGNIEPFVSIPTPREKVAMEYLQSASRILDKVQLRDVVASSHLLQSEFMEIPMNFVDPKEIDIPRHGTKNRYKTILPNPLSRVCLRPKNVTDSLSTYINANYIRGYSGKEKAFIATQGPMINTVDDFWQMVWQEDSPVIVMITKLKEKNEKCVLYWPEKRGIYGKVEVLVISVNECDNYTIRNLVLKQGSHTQHVSNYWYTSWPDHKTPDSAQPLLQLMLDVEEDRLASQGPRAVVVHCSAGIGRTGCFIATSIGCQQLKEEGVVDALSIVCQLRMDRGGMVQTSEQYEFVHHALCLYESRLSAETVQ
# Target: myelin basic protein, 32P-labeled on tyrosine residues
binder,measurement,value
B1,"dephosphorylation (radioactivity released as inorganic phosphate, percentage of total input)",> 30%
